This note sets out measurements from patent publication US20140087995A1 (published 2014).

Numbered stars: 1 amine (or outer) side, 2 acyl side, 3 side chain; on linkers, the order of the positions; unused ones are H or OH. Bridge positions count the residues as written; N and C are the ends. Side chains are listed from the residue outwards. Ends that are not written are not given here. * marks the point of attachment. C20 diacid = O=C(O)CCCCCCCCCCCCCCCCCCC(=O)*; γGlu = O=C(O)[C@H](CCC(=O)[*:2])N[*:1]

The target in experiment [1] is T1, human calcitonin receptor (human, UniProt P30988 25-474).
T1 construct: whole, on cells; Membranes of stably transfected cells; also called hCTR; hCT
T1 sequence (looked up): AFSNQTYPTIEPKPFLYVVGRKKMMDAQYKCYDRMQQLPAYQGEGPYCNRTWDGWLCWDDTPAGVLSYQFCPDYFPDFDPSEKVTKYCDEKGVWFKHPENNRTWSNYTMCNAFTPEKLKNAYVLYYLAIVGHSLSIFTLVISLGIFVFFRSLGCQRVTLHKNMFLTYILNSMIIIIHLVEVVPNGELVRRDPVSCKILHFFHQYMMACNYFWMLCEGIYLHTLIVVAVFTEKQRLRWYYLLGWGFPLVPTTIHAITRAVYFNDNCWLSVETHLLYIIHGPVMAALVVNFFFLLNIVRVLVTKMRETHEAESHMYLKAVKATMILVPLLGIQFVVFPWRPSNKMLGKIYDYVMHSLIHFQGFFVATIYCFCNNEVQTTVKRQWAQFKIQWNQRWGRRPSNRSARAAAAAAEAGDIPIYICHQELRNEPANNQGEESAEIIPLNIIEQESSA
Put plainly: ratio of IC50 on human calcitonin receptor to IC50 on human amylin receptor (reference m42), SPA competition. In short, it runs like this:
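Scintillation proximity competition binding on cell membranes at 35 ng/μL with SPA beads, in 50 mM Hepes pH 7.4, 1 mM CaCl2, 5 mM MgCl₂, 0.1% OA, 0.02% Tween20. Incubated 120 min at 25° C with shaking. IC₅₀ from one-site competition fit.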

Experiment [2] addresses T2, rat amylin receptor (rat calcitonin receptor + rat RAMP 3) (rat, UniProt P32214 25-516; Q9JJ73 23-147).
T2 construct: whole, on cells; Membranes of transiently transfected BHK tk'ts 13 cells; also called rAmylin-R; rat amylin 3(a) receptor
T2 sequence (looked up) 1: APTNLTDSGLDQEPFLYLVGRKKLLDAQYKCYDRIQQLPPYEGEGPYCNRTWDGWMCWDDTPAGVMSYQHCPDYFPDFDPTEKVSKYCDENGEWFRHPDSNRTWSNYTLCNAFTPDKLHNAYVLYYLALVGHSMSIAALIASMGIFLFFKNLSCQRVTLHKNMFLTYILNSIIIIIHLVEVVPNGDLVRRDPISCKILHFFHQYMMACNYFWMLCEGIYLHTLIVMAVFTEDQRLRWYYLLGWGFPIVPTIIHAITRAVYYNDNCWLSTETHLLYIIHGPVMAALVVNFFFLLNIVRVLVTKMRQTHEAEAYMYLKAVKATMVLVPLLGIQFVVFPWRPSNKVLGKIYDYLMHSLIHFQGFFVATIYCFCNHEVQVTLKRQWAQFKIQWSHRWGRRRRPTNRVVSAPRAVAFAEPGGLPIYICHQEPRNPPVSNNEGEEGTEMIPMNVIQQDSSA
T2 sequence (looked up) 2: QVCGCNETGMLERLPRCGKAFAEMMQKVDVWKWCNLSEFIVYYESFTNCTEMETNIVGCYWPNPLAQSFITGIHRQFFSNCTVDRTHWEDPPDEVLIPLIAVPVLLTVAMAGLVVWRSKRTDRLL
Briefly: SPA competition with 125I-rat amylin on membranes of BHK tk'ts 13 cells with rat calcitonin receptor + rat RAMP3 (Assay VI).

Experiment [3] addresses T3, rat calcitonin receptor (rat, UniProt P32214 25-516).
T3 construct: whole, on cells; Membranes of transiently transfected BHK tk'ts 13 cells; also called rCTR; rat calcitonin (a) receptor
T3 sequence (looked up): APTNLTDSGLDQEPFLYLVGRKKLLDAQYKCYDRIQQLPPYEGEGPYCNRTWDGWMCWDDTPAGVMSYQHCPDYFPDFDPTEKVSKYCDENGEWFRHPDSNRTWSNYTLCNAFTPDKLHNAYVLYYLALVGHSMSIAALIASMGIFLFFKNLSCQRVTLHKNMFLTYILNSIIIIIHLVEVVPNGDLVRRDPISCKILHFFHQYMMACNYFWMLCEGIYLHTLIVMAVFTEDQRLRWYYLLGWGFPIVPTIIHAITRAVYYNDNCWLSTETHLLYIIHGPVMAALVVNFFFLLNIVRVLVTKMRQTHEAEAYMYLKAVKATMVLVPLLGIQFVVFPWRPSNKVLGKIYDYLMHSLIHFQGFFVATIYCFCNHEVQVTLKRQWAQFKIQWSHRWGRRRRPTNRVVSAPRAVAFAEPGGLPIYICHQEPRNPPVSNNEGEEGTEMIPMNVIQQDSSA
Put plainly: ratio of IC50 on rat calcitonin receptor to IC50 on rat amylin receptor (reference m40).

Experiment [4] addresses T3, rat calcitonin receptor. Put plainly: SPA competition with 125I-calcitonin on membranes of BHK tk'ts 13 cells with rat calcitonin receptor (Assay VIII).

B1: N^ε1-[(4S)-4-carboxy-4-(19-carboxynonadecanoylamino)butanoyl]-[Glu14,Arg17,Pro21,Pro27,His34,Glu35]-h-amylin (peptide)
peptide: K([γGlu-C20 diacid])CNTATCATQRLAEFLRHSSPNFGAIPSSTNVGHETY-NH2
modifications: disulfide 2-7; N-terminus assumed
SMILES: CC[C@H](C)[C@H](NC(=O)[C@H](C)NC(=O)CNC(=O)[C@H](Cc1ccccc1)NC(=O)[C@H](CC(N)=O)NC(=O)[C@@H]1CCCN1C(=O)[C@H](CO)NC(=O)[C@H](CO)NC(=O)[C@H](Cc1c[nH]cn1)NC(=O)[C@H](CCCNC(=N)N)NC(=O)[C@H](CC(C)C)NC(=O)[C@H](Cc1ccccc1)NC(=O)[C@H](CCC(=O)O)NC(=O)[C@H](C)NC(=O)[C@H](CC(C)C)NC(=O)[C@H](CCCNC(=N)N)NC(=O)[C@H](CCC(N)=O)NC(=O)[C@@H](NC(=O)[C@H](C)NC(=O)[C@@H]1CSSC[C@H](NC(=O)[C@@H](N)CCCCNC(=O)CC[C@H](NC(=O)CCCCCCCCCCCCCCCCCCC(=O)O)C(=O)O)C(=O)N[C@@H](CC(N)=O)C(=O)N[C@@H]([C@@H](C)O)C(=O)N[C@@H](C)C(=O)N[C@@H]([C@@H](C)O)C(=O)N1)[C@@H](C)O)C(=O)N1CCC[C@H]1C(=O)N[C@@H](CO)C(=O)N[C@@H](CO)C(=O)N[C@H](C(=O)N[C@@H](CC(N)=O)C(=O)N[C@H](C(=O)NCC(=O)N[C@@H](Cc1c[nH]cn1)C(=O)N[C@@H](CCC(=O)O)C(=O)N[C@H](C(=O)N[C@@H](Cc1ccc(O)cc1)C(N)=O)[C@@H](C)O)C(C)C)[C@@H](C)O
notes: Synthetic acylated analogue of human amylin; also called compound 107
For B1, in experiment [1], the “Ratio hCT/hAmylin binding” value came to 11.1. In addition, the IC50 (as a rule, the concentration that inhibits the measured activity by half) in experiment [2] worked out at 0.958 nM; in experiment [4], 33.1 nM. Besides, in experiment [3], the “Ratio rCT/rAmylin binding” value was 34.6.

B2: N^ε1-[(4S)-4-carboxy-4-(19-carboxynonadecanoylamino)butanoyl]-[His14,Arg17,Pro21,Pro27,Pro31,Pro34]-h-amylin (peptide)
peptide: K([γGlu-C20 diacid])CNTATCATQRLAHFLRHSSPNFGAIPSSTPVGPNTY-NH2
modifications: disulfide 2-7; N-terminus assumed
SMILES: CC[C@H](C)[C@H](NC(=O)[C@H](C)NC(=O)CNC(=O)[C@H](Cc1ccccc1)NC(=O)[C@H](CC(N)=O)NC(=O)[C@@H]1CCCN1C(=O)[C@H](CO)NC(=O)[C@H](CO)NC(=O)[C@H](Cc1c[nH]cn1)NC(=O)[C@H](CCCNC(=N)N)NC(=O)[C@H](CC(C)C)NC(=O)[C@H](Cc1ccccc1)NC(=O)[C@H](Cc1c[nH]cn1)NC(=O)[C@H](C)NC(=O)[C@H](CC(C)C)NC(=O)[C@H](CCCNC(=N)N)NC(=O)[C@H](CCC(N)=O)NC(=O)[C@@H](NC(=O)[C@H](C)NC(=O)[C@@H]1CSSC[C@H](NC(=O)[C@@H](N)CCCCNC(=O)CC[C@H](NC(=O)CCCCCCCCCCCCCCCCCCC(=O)O)C(=O)O)C(=O)N[C@@H](CC(N)=O)C(=O)N[C@@H]([C@@H](C)O)C(=O)N[C@@H](C)C(=O)N[C@@H]([C@@H](C)O)C(=O)N1)[C@@H](C)O)C(=O)N1CCC[C@H]1C(=O)N[C@@H](CO)C(=O)N[C@@H](CO)C(=O)N[C@H](C(=O)N1CCC[C@H]1C(=O)N[C@H](C(=O)NCC(=O)N1CCC[C@H]1C(=O)N[C@@H](CC(N)=O)C(=O)N[C@H](C(=O)N[C@@H](Cc1ccc(O)cc1)C(N)=O)[C@@H](C)O)C(C)C)[C@@H](C)O
notes: Synthetic acylated analogue of human amylin
In the case of B2, the “Ratio hCT/hAmylin binding” value in experiment [1] amounted to 24.8. Also, the IC50 turned out to be 0.125 nM in experiment [2] and 9.05 nM in experiment [4]. The “Ratio rCT/rAmylin binding” value in experiment [3] amounted to 72.4.

B3: N^ε1-[(4S)-4-carboxy-4-(19-carboxynonadecanoylamino)butanoyl]-[Glu14,Arg17,Pro21,Pro27,Pro34,His35]-h-amylin (peptide)
peptide: K([γGlu-C20 diacid])CNTATCATQRLAEFLRHSSPNFGAIPSSTNVGPHTY-NH2
modifications: disulfide 2-7
notes: as for B2
B3: the “Ratio hCT/hAmylin binding” value in experiment [1] was 21.2. The results for the IC50 in experiment [2] and in experiment [4] were 0.104 nM and 5.43 nM, respectively. Moreover, the “Ratio rCT/rAmylin binding” value in experiment [3] turned out to be 52.2.

B4: N^ε1-[(4S)-4-carboxy-4-(19-carboxynonadecanoylamino)butanoyl]-[Glu14,Arg17,Pro21,Pro27,Pro34,Arg35]-h-amylin (peptide)
peptide: K([γGlu-C20 diacid])CNTATCATQRLAEFLRHSSPNFGAIPSSTNVGPRTY-NH2
modifications: disulfide 2-7; N-terminus assumed
SMILES: CC[C@H](C)[C@H](NC(=O)[C@H](C)NC(=O)CNC(=O)[C@H](Cc1ccccc1)NC(=O)[C@H](CC(N)=O)NC(=O)[C@@H]1CCCN1C(=O)[C@H](CO)NC(=O)[C@H](CO)NC(=O)[C@H](Cc1c[nH]cn1)NC(=O)[C@H](CCCNC(=N)N)NC(=O)[C@H](CC(C)C)NC(=O)[C@H](Cc1ccccc1)NC(=O)[C@H](CCC(=O)O)NC(=O)[C@H](C)NC(=O)[C@H](CC(C)C)NC(=O)[C@H](CCCNC(=N)N)NC(=O)[C@H](CCC(N)=O)NC(=O)[C@@H](NC(=O)[C@H](C)NC(=O)[C@@H]1CSSC[C@H](NC(=O)[C@@H](N)CCCCNC(=O)CC[C@H](NC(=O)CCCCCCCCCCCCCCCCCCC(=O)O)C(=O)O)C(=O)N[C@@H](CC(N)=O)C(=O)N[C@@H]([C@@H](C)O)C(=O)N[C@@H](C)C(=O)N[C@@H]([C@@H](C)O)C(=O)N1)[C@@H](C)O)C(=O)N1CCC[C@H]1C(=O)N[C@@H](CO)C(=O)N[C@@H](CO)C(=O)N[C@H](C(=O)N[C@@H](CC(N)=O)C(=O)N[C@H](C(=O)NCC(=O)N1CCC[C@H]1C(=O)N[C@@H](CCCNC(=N)N)C(=O)N[C@H](C(=O)N[C@@H](Cc1ccc(O)cc1)C(N)=O)[C@@H](C)O)C(C)C)[C@@H](C)O
notes: as for B2
Take B4: the “Ratio hCT/hAmylin binding” value in experiment [1] is 38.6. Further, the IC50 in experiment [2] was found to be 0.339 nM; in experiment [4], 15.4 nM. In addition, the “Ratio rCT/rAmylin binding” value in experiment [3] was 45.5.

B5: N^ε1-[(4S)-4-carboxy-4-(19-carboxynonadecanoylamino)butanoyl]-[Glu14,Arg17,Pro21,Pro27,His35]-h-amylin (peptide)
peptide: K([γGlu-C20 diacid])CNTATCATQRLAEFLRHSSPNFGAIPSSTNVGSHTY-NH2
modifications: disulfide 2-7; N-terminus assumed
SMILES: CC[C@H](C)[C@H](NC(=O)[C@H](C)NC(=O)CNC(=O)[C@H](Cc1ccccc1)NC(=O)[C@H](CC(N)=O)NC(=O)[C@@H]1CCCN1C(=O)[C@H](CO)NC(=O)[C@H](CO)NC(=O)[C@H](Cc1c[nH]cn1)NC(=O)[C@H](CCCNC(=N)N)NC(=O)[C@H](CC(C)C)NC(=O)[C@H](Cc1ccccc1)NC(=O)[C@H](CCC(=O)O)NC(=O)[C@H](C)NC(=O)[C@H](CC(C)C)NC(=O)[C@H](CCCNC(=N)N)NC(=O)[C@H](CCC(N)=O)NC(=O)[C@@H](NC(=O)[C@H](C)NC(=O)[C@@H]1CSSC[C@H](NC(=O)[C@@H](N)CCCCNC(=O)CC[C@H](NC(=O)CCCCCCCCCCCCCCCCCCC(=O)O)C(=O)O)C(=O)N[C@@H](CC(N)=O)C(=O)N[C@@H]([C@@H](C)O)C(=O)N[C@@H](C)C(=O)N[C@@H]([C@@H](C)O)C(=O)N1)[C@@H](C)O)C(=O)N1CCC[C@H]1C(=O)N[C@@H](CO)C(=O)N[C@@H](CO)C(=O)N[C@H](C(=O)N[C@@H](CC(N)=O)C(=O)N[C@H](C(=O)NCC(=O)N[C@@H](CO)C(=O)N[C@@H](Cc1c[nH]cn1)C(=O)N[C@H](C(=O)N[C@@H](Cc1ccc(O)cc1)C(N)=O)[C@@H](C)O)C(C)C)[C@@H](C)O
notes: as for B2
Regarding B5, the “Ratio hCT/hAmylin binding” value in experiment [1] is 26.4. The IC50 in experiment [2] amounted to 1.16 nM; in experiment [4] it was 26.3 nM. Further, in experiment [3], the “Ratio rCT/rAmylin binding” value came to 22.7.
